One block for each binder: values may come before it.
Legend:
[1] = target: T1, human CCR3 expressed on 4DE4 cells (human) (UniProt P51677)
T1 sequence: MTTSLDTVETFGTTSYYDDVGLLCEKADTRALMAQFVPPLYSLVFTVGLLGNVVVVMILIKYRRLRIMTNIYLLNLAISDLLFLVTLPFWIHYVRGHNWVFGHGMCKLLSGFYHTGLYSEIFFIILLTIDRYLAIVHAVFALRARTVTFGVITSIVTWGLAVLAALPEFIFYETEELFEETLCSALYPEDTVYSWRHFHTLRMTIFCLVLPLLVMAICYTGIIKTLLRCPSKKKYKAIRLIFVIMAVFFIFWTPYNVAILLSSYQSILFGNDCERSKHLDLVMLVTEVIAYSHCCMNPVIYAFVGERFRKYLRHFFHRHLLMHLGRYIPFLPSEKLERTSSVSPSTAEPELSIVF

[2] = target: T2, mCCR8 tagged at the N-terminus with a C-myc epitope tag and at the C-terminus with Renilla luciferase variant 8 (mouse) (UniProt P56484)
T2 sequence: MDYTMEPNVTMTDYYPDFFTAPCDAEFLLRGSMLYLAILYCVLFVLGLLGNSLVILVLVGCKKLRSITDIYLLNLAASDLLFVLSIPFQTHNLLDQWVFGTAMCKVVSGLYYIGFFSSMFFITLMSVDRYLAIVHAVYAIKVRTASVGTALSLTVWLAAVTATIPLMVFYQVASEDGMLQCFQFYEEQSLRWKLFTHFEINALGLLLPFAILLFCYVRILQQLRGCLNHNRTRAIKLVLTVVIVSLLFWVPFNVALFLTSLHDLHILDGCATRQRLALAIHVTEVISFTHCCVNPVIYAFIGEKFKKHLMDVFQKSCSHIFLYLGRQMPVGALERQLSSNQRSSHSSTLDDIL

[3] = target: T3, mouse CCR8 expressed on FlpInCHO cells (mouse) (UniProt P56484)
T3 sequence: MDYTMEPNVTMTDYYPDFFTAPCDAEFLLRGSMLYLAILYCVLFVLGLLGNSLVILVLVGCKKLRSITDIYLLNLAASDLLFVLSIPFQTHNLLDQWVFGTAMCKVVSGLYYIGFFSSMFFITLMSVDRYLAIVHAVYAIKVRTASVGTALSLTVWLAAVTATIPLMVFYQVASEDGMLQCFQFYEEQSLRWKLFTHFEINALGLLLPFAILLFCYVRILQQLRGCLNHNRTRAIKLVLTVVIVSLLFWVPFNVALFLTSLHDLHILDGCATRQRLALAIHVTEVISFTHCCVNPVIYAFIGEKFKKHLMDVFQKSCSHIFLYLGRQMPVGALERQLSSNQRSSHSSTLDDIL

[4] = target: human CCR8 expressed on transfected cells (human, UniProt P51685 1-355); experiment: cell-based or functional assay
[5] = target: CCR8 tagged at the N-terminus with a C-myc epitope tag and at the C-terminus with Renilla luciferase variant 8 (human, UniProt P51685 1-355); experiment: cell-based or functional assay
Sequence of CCR8 tagged at the N-terminus with a C-myc epitope tag and at the C-terminus with Renilla luciferase variant 8 (P51685 whole entry, change not shown): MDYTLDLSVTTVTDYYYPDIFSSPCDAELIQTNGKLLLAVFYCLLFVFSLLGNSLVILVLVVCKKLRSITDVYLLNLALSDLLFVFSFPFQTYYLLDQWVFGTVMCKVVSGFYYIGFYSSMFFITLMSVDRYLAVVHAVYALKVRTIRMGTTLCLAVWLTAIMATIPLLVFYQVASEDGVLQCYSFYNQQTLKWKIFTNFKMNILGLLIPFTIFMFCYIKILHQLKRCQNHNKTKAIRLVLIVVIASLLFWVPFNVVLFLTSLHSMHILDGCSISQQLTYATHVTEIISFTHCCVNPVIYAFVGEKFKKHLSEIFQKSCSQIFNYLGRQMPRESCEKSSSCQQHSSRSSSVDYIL

Sequence of human CCR8 expressed on transfected cells (P51685 whole entry): as the sequence (P51685 whole entry, change not shown) above

inhibition by CCL18 of chemotaxis of 4DE4-CCR3 cells to 1 nM CCL11 (blocks CCL11 with CCR3); 50% inhibitory concentration [1]: < 50 nM
B1: CCL18(1–69) (ligand)
chain: AQVGTNKELCCLVYTSWQIPQKFIVDYSETSPQCPKPGVILLTKRGRQICADPNKKWVQKYISDLKLNA

β-arrestin2 recruitment to mCCR8 (BRET) in FlpIn CHO cells; EC50 of mCCL1 [2]: 0.024 µM
G protein activation in FlpIn CHO cells stably expressing mCCR8; EC50 [3]: 0.011 µM
cAMP inhibition in FlpIn CHO cells stably expressing mCCR8; EC50 [3]: 0.03 µM
B2: murine CCL1 (ligand)
chain: KSMLTVSNSCCLNTLKKELPLKFIQCYRKMGSSCPDPPAVVFRLNKGRESCASTNKTWVQNHLKKVNPC

G protein activation (Gαi2; BRET of Gβγ with a GRK fragment) in FlpIn CHO cells stably expressing CCR8; EC50 [4]: 0.046 µM
inhibition of forskolin-stimulated cAMP synthesis (CAMYEL biosensor) in FlpIn CHO cells stably expressing CCR8; EC50 [4]: 0.026 µM
β-arrestin2 recruitment to CCR8 (BRET) in FlpIn CHO cells; EC50 of CCL1 [5]: 0.021 µM
B3: CCL1 (ligand, human, UniProt P22362 24-96, looked up)
chain: KSMQVPFSRCCFSFAEQEIPLRAILCYRNTSSICSNEGLIFKLKRGKEACALDTVGWVQRHRKMLRHCPSKRK

— paper PMC11389940, “The chemokine receptor CCR8 is not a high-affinity receptor for the human chemokine CCL18” (PLOS ONE, 2024)
